Assay results: patent US20230212587A1, “Mutant Hydroxyphenylpyruvate Dioxygenase Polypeptide, Encoding Gene Thereof and Use Therefor” (Beijing Dabeinong Biotechnology Co., Ltd., priority 2019, published 2023)
Numbering of substitutions follows the chain as printed. Names may count otherwise.

B1: TaHPPDm-F372A-02: Triticum aestivum HPPD mutant F372A, SEQ ID NO: 42 (protein)
chain: MPPTPTTPAATGAGAAAAVTPEHARPRRMVRFNPRSDRFHTLSFHHVEFWCADAASAAGRFAFALGAPLAARSDLSTGNSVHASQLLRSGNLAFLFTAPYANGCDAATASLPSFSADAARRFSADHGLAVRSIALRVADAAEAFRASVDGGARPAFSPVDLGRGFGFAEVELYGDVVLRFVSHPDGTDVPFLPGFEGVSNPGAVDYGLTRFDHVVGNVPELASAAAYVAGFTGFHEFAEFTTEDVGTAESGLNSMVLANNSEGVLLPLNEPVHGTKRRSQIQTFLEHHGGPGVQHIAVASSDVLRTLREMRARSAMGGFDFLPPPLPKYYEGVRRIAGDVLSEAQIKECQELGVLVDRDDQGVLLQIATKPVGDRPTLFLEMIQRIGCMEKDERGEEYQKGGCGGFGKGNFSELFKSIEDYEKSLEAKQSAAVQGS
modifications: TaHPPDm-F372A Amino Acid Sequence
B2: N4HPPD-02: native Burkholderia sp. N4 HPPD, SEQ ID NO: 165 (protein)
chain: MQIPNWENPVGTDGFEFIEYTAPDPKALGQLFERMGFTAIARHRHKDVTVYRQGDINFIINAEPDSFAQRFARLHGPSICAIAFRVQDAAKAYQHALELGAWGFDNKTGPMELNIPAIKGIGDSLIYFVDRWRGKNGAQPGAIGDISIYDVDFEPIAGATPNPAGHGLTYIDHLTHNVHRGRMQEWAEFYERLFNFREVRYFDIEGKVTGVKSKAMTSPCGKIRIPINEEGSDTAGQIQEYLDAYHGEGIQHIALGTSDIYGAVDGLRGKEVKLLDTIDTYYELVDRRVPDHGESLDELKKRKILIDGARDDLLLQIFTENQIGPIFFEIIQRKGNQGFGEGTFKALFESIELDQIRRGVVQDKA
modifications: N4HPPD Amino Acid Sequence (Burkholderia)
B3: N4HPPDm-F372A-02: Burkholderia sp. N4 HPPD mutant F372A, SEQ ID NO: 168 (protein)
chain: B2 chain with F318A
modifications: N4HPPDm-F372A Amino Acid Sequence
B4: N5HPPD-02: native Sphingobium sp. N5 HPPD, SEQ ID NO: 171 (protein)
chain: MAADSENPLGLHGFAFAEFTSPDPAAMARQFEQLGFVPAARRKDRGLTLYRQGRIAFILNAGEGEQASAFRAAHGPSANGMAFNVADAKAAHRHAIQSGATDADTAQSALPGTYAIEGIGDSLLYLVDSDPFADWDEVPGWREASAERGVGLDLLDHLTHNVRRGQMRVWSEFYATLFGFEEQKFFDIKGQATGLFSQAMIAPDHEIRIPLNESQDDNSQIEEFIREYNGEGIQHLALTTPDIYSTVEKLRANGVRLQDTIDTYYDLVDERVPGHGEDLARLRKNRILIDGDVHDEGLLLQIFTETMFGPIFFEIIQRKGNEGFGNGNFQVLFESIELDQIRRGVVTVDA
modifications: N5HPPD Amino Acid Sequence (Burkholderia)
B5: N5HPPDm-F372A-02: Sphingobium sp. N5 HPPD mutant F372A, SEQ ID NO: 174 (protein)
chain: B4 chain with F303A
modifications: N5HPPDm-F372A Amino Acid Sequence

Tested on: Arabidopsis thaliana T1 plants
Test: Topramezone tolerance of transgenic Arabidopsis thaliana T1 plants (pesticide damage grade by bleached leaf area, score, resistance evaluation)
Format: in vivo
Settings: HPPDs from different species, 7 DAT; for Classification and statistics of pesticide damage grade Grade 0 / Classification and statistics of pesticide damage grade Grade 1 / Classification and statistics of pesticide damage grade Grade 2 / Classification and statistics of pesticide damage grade Grade 3: number of plants (of 16) in this grade; for Scores: score for pesticide damage 0-100
Procedure, shortened: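 Herbicide tolerance was judged per plant on a bleaching scale (grade 0 no bleaching to grade 3 fully bleached) 7 DAT. Topramezone doses were 0, 25, 50 and 100 g ai/ha on 18-day-old T1 and wild-type plants.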

Molecule	Classification and statistics of pesticide damage grade Grade 0 (topramezone 25 g ai/ha (1x))	Classification and statistics of pesticide damage grade Grade 1 (topramezone 25 g ai/ha (1x))	Classification and statistics of pesticide damage grade Grade 2 (topramezone 25 g ai/ha (1x))	Classification and statistics of pesticide damage grade Grade 3 (topramezone 25 g ai/ha (1x))	Classification and statistics of pesticide damage grade Grade 0 (topramezone 100 g ai/ha (4x))	Classification and statistics of pesticide damage grade Grade 1 (topramezone 100 g ai/ha (4x))	Classification and statistics of pesticide damage grade Grade 2 (topramezone 100 g ai/ha (4x))	Classification and statistics of pesticide damage grade Grade 3 (topramezone 100 g ai/ha (4x))	Scores (topramezone 25 g ai/ha (1x))	Scores (topramezone 100 g ai/ha (4x))	Resistance evaluation (topramezone 25 g ai/ha (1x))	Resistance evaluation (topramezone 100 g ai/ha (4x))
B1	16	0	0	0	15	1	0	0	0	2	highly resistant (highly resistant plants (scores 0-15))	highly resistant (highly resistant plants (scores 0-15))
B2	5	6	5	0	0	8	2	6	33	63	moderately resistant (moderately resistant plants (scores 16-33))	poorly resistant (poorly resistant plants (scores 34-67))
B3	16	0	0	0	12	4	0	0	0	8	highly resistant (highly resistant plants (scores 0-15))	highly resistant (highly resistant plants (scores 0-15))
B4	6	6	4	0	0	7	5	4	21	60	moderately resistant (moderately resistant plants (scores 16-33))	poorly resistant (poorly resistant plants (scores 34-67))
B5	16	0	0	0	13	3	0	0	0	6	highly resistant (highly resistant plants (scores 0-15))	highly resistant (highly resistant plants (scores 0-15))
